Eleven substances from patent US12617856B2, “Protease-cleavable substrates and methods of use thereof” (CytomX Therapeutics, Inc., priority 2022, dated 2026) can be followed below.

Holding throughout (type): biochemical
Test [1] concerns the target T1, MMP2 (Homo sapiens, UniProt P08253).
T1 sequence (P08253 110-660): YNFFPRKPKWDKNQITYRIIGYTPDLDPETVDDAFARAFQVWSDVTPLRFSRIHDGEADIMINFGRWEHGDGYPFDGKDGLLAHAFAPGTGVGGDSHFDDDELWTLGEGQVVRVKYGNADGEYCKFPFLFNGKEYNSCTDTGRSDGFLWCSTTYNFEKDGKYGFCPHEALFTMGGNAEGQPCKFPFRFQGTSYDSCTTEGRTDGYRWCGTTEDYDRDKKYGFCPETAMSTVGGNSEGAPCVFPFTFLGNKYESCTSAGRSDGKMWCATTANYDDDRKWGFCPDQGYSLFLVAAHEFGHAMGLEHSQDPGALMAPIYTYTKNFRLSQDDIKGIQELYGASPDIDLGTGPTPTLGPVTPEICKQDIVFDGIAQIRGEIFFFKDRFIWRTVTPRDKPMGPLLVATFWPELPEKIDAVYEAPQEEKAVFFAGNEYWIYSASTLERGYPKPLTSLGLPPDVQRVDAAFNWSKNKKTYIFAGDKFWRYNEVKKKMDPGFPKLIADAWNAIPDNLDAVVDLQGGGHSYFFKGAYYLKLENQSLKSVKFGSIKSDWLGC
In words: Peptide probe cleavage assay (internally quenched MCA/DNP probes) with MMP2. To be noted: 20 μM internally quenched peptide probe, 20 nM protease, 37° C.

For test [2], the target named is MMP9 (Homo sapiens, UniProt P14780). Put plainly: Peptide probe cleavage assay (internally quenched MCA/DNP probes) with MMP9. To be noted: 20 μM internally quenched peptide probe, 20 nM protease, 37° C.
Sequence of MMP9 (P14780 94-707): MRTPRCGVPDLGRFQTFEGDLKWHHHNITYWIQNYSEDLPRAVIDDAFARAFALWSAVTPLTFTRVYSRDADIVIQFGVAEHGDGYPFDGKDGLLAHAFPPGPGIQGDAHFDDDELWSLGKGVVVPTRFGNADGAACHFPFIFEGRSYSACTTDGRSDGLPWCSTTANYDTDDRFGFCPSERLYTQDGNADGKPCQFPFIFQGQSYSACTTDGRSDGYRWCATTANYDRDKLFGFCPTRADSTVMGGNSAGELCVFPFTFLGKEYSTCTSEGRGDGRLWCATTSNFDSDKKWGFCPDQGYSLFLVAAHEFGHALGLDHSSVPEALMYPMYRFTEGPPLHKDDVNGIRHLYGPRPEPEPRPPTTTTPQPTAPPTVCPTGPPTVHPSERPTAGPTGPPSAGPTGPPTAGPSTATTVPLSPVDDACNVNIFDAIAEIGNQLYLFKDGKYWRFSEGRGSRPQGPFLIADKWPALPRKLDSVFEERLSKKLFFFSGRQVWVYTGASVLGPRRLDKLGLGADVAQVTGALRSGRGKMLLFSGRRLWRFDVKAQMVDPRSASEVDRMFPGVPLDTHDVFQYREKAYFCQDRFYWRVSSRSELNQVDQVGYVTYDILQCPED
Test [3] deals with urokinase-type plasminogen activator (uPA) (Homo sapiens, UniProt P00749). In words: Peptide probe cleavage assay (internally quenched MCA/DNP probes) with uPA. Particulars: 20 μM internally quenched peptide probe, 20 nM protease, 37° C.; — = below limit of quantification.
For test [4], the target named is T2, membrane type serine protease 1 (MT-SP1) (Homo sapiens, UniProt Q9Y5Y6).
T2 sequence (Q9Y5Y6 1-855): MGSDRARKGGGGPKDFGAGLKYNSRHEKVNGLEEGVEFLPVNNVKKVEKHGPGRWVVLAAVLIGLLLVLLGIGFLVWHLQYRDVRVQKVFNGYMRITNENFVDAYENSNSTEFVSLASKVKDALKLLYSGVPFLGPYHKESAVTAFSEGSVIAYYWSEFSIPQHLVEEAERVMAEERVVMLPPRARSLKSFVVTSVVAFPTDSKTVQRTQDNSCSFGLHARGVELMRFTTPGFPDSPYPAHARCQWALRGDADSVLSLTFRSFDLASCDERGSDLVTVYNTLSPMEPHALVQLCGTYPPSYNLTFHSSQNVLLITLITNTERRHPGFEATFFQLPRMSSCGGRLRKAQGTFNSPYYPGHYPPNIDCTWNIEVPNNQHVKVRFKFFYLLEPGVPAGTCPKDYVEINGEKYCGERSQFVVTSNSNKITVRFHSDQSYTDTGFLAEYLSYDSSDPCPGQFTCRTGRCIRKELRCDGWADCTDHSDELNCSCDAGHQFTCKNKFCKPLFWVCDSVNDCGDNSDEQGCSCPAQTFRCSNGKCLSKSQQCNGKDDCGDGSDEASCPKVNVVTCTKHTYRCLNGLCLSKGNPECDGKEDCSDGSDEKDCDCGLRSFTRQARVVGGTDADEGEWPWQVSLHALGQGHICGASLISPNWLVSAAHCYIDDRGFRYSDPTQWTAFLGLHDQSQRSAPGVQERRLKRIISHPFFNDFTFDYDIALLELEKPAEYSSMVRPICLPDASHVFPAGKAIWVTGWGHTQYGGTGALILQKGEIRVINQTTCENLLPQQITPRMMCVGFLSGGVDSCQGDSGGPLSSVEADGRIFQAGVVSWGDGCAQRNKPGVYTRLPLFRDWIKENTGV
Put plainly: Peptide probe cleavage assay (internally quenched MCA/DNP probes) with MT-SP1. To be noted: 20 μM internally quenched peptide probe, 20 nM protease, 37° C.

The target in test [5] is MMP14 (Homo sapiens, UniProt P50281). In words: Peptide probe cleavage assay (internally quenched MCA/DNP probes) with MMP14. To be noted: 20 μM internally quenched peptide probe, 20 nM protease, 37° C.; — = below limit of quantification.

Starred links: 1 amine or outer side, 2 acyl side, 3 side chain; linkers in the order of their positions; H or OH if unused. No end group written: not given here. *: point of attachment. K(DNP) = O=C([C@H](CCCCNc1ccc([N+](=O)[O-])cc1[N+](=O)[O-])N[*:1])[*:2]; Mca = COc1ccc2c(CC(=O)*)cc(=O)oc2c1

With “(MCA)-Gly-Ser-Trp-Gly-Leu-Ser-Gly-Arg-Ser-Gly-Lys (DNP)-D-Arg (Mca-GSWGLSGRSG-{K(DNP)-dR}; SMILES COc1ccc2c(CC(=O)NCC(=O)N[C@@H](CO)C(=O)N[C@@H](Cc3c[nH]c4ccccc34)C(=O)NCC(=O)N[C@@H](CC(C)C)C(=O)N[C@@H](CO)C(=O)NCC(=O)N[C@@H](CCCNC(=N)N)C(=O)N[C@@H](CO)C(=O)NCC(=O)N[C@@H](CCCCNc3ccc([N+](=O)[O-])cc3[N+](=O)[O-])C(=O)N[C@H](CCCNC(=N)N)C(=O)O)cc(=O)oc2c1) [CM WGLSGRS]”, the “Probe Cleavage (pM/s) MMP2” value in test [1] was found to be 66.4 pM/s. The “Probe Cleavage (pM/s) MMP9” value in test [2] is 581 pM/s.
Regarding “(MCA)-Ser-Pro-Trp-Gly-Leu-Ser-Gly-Arg-Gly-Ser-Lys (DNP)-D-Arg (Mca-SPWGLSGRGS-{K(DNP)-dR}; SMILES COc1ccc2c(CC(=O)N[C@@H](CO)C(=O)N3CCC[C@H]3C(=O)N[C@@H](Cc3c[nH]c4ccccc34)C(=O)NCC(=O)N[C@@H](CC(C)C)C(=O)N[C@@H](CO)C(=O)NCC(=O)N[C@@H](CCCNC(=N)N)C(=O)NCC(=O)N[C@@H](CO)C(=O)N[C@@H](CCCCNc3ccc([N+](=O)[O-])cc3[N+](=O)[O-])C(=O)N[C@H](CCCNC(=N)N)C(=O)O)cc(=O)oc2c1) [CM PWGLSGR]”, the “Probe Cleavage (pM/s) uPA” value in test [3] is reported as 48.3 pM/s.
In the case of “(MCA)-Ser-Pro-Trp-Gly-Leu-Ser-Gly-Gly-Gly-Ser-Lys (DNP)-D-Arg (Mca-SPWGLSGGGS-{K(DNP)-dR}; SMILES COc1ccc2c(CC(=O)N[C@@H](CO)C(=O)N3CCC[C@H]3C(=O)N[C@@H](Cc3c[nH]c4ccccc34)C(=O)NCC(=O)N[C@@H](CC(C)C)C(=O)N[C@@H](CO)C(=O)NCC(=O)NCC(=O)NCC(=O)N[C@@H](CO)C(=O)N[C@@H](CCCCNc3ccc([N+](=O)[O-])cc3[N+](=O)[O-])C(=O)N[C@H](CCCNC(=N)N)C(=O)O)cc(=O)oc2c1) [CM PWGLSG]”, in test [4], the “Probe Cleavage (pM/s) MT-SP1” value is 5.10 pM/s. Moreover, the “Probe Cleavage (pM/s) uPA” value in test [3] is on record as 12.9 pM/s.
Regarding “CM AWGLSGRS: internally quenched MCA/DNP probe SEQ ID NO: 699 with one residue replaced by Ala, CM AWGLSGRS (SEQ ID NO: 686) (not fully specified (N-terminus, C-terminus); also: MCA/DNP internal quench labels, places not given here)”, the “Probe Cleavage (pM/s) MMP2” value in test [1] is 816 pM/s. In addition, in test [5], the “Probe Cleavage (pM/s) MMP14” value was 224 pM/s.
In the case of “CM LSGRSPAGL: internally quenched MCA/DNP probe of design SEQ ID NO: 703, X1 Arg, X2 Ala, CM LSGRSPAGL (SEQ ID NO: 694) (also: MCA/DNP internal quench labels, places not given here)”, in test [5], the “Probe Cleavage (pM/s) MMP14” value was 190 pM/s.
Regarding “CM PWGASGRS: internally quenched MCA/DNP probe SEQ ID NO: 699 with one residue replaced by Ala, CM PWGASGRS (SEQ ID NO: 689) (not fully specified (N-terminus, C-terminus); also: MCA/DNP internal quench labels, places not given here)”, in test [1], the “Probe Cleavage (pM/s) MMP2” value was 202 pM/s. Besides, the “Probe Cleavage (pM/s) MMP14” value in test [5] is listed as 29.7 pM/s. In addition, the “Probe Cleavage (pM/s) MMP9” value in test [2] is on record as 456 pM/s.
Consider “CM PWGLAGRS: internally quenched MCA/DNP probe SEQ ID NO: 699 with one residue replaced by Ala, CM PWGLAGRS (SEQ ID NO: 690) (not fully specified (N-terminus, C-terminus); also: MCA/DNP internal quench labels, places not given here)”, for which the “Probe Cleavage (pM/s) uPA” value in test [3] was 126 pM/s.
As for “CM PWGLRS: internally quenched MCA/DNP peptide probe of design SEQ ID NO: 698, CM PWGLRS (SEQ ID NO: 48) (also: MCA/DNP internal quench labels, places not given here)”, the “Probe Cleavage (pM/s) MMP2” value in test [1] is reported as 3800 pM/s. Also, the “Probe Cleavage (pM/s) MT-SP1” value in test [4] came to 1230 pM/s. Further, the “Probe Cleavage (pM/s) MMP14” value in test [5] was determined as 4380 pM/s. The “Probe Cleavage (pM/s) MMP9” value in test [2] was 3830 pM/s.
As for “CM PWGLSGAS: internally quenched MCA/DNP probe SEQ ID NO: 699 with one residue replaced by Ala, CM PWGLSGAS (SEQ ID NO: 692) (not fully specified (N-terminus, C-terminus); also: MCA/DNP internal quench labels, places not given here)”, the “Probe Cleavage (pM/s) MT-SP1” value in test [4] is 13.0 pM/s. For the same substance, in test [3], the “Probe Cleavage (pM/s) uPA” value turned out to be 1.80 pM/s.
Consider “CM PWGLSGRA: internally quenched MCA/DNP probe SEQ ID NO: 699 with one residue replaced by Ala, CM PWGLSGRA (SEQ ID NO: 693) (not fully specified (N-terminus, C-terminus); also: MCA/DNP internal quench labels, places not given here)”, for which, in test [3], the “Probe Cleavage (pM/s) uPA” value is recorded as 380 pM/s.
Regarding “CM RSPWGL: internally quenched MCA/DNP peptide probe of design SEQ ID NO: 698, CM RSPWGL (SEQ ID NO: 90) (also: MCA/DNP internal quench labels, places not given here)”, in test [1], the “Probe Cleavage (pM/s) MMP2” value turned out to be 11700 pM/s. Moreover, the “Probe Cleavage (pM/s) MT-SP1” value in test [4] amounted to 2390 pM/s. For the same substance, in test [3], the “Probe Cleavage (pM/s) uPA” value came to 3210 pM/s. Also, the “Probe Cleavage (pM/s) MMP14” value in test [5] was 9580 pM/s. Besides, the “Probe Cleavage (pM/s) MMP9” value in test [2] is on record as 25500 pM/s.
